According to article doi:10.1101/641308:

Target: OcwA (Outer cell-wall protein A), nonaheme cytochrome TherJR_2595 from Thermincola potens JR (Thermincola potens JR)
Experiment: SEC

stoichiometry N: 2
Substance: OcwA (Outer cell-wall protein A), nonaheme cytochrome TherJR_2595 from Thermincola potens JR (natural protein)
